Test results as given in the supplement of paper PMC10567573.
± gives the standard deviation.

Assay: protein stability index of a GFP-peptide fusion (GPS, HEK-293T) (PSI 1-6); higher = more stable
[1] = treatment: DMSO, c terminus: a fixed tail appended
[2] = treatment: MLN4924 1 uM, 8 h, c terminus: a fixed tail appended
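Note: 24-mer peptide tiles fused after GFP, lentivirally expressed, FACS-sorted into six equal bins by GFP/DsRed ratio, decoded by Illumina sequencing, PSI is the read-weighted mean bin number.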

LPGNHSTSQEIFRQRFRHLRYQET [ZNF232]
protein stability index [1]: 3.13 ± 0.17
protein stability index [2]: 3.39 ± 0.19

LPGPTRPVLGRRAVGGRLRLVPGG [HAGHL]
protein stability index [1]: 3.53 ± 0.41
protein stability index [2]: 3.67 ± 0.23

LPIQTPGAFLRTCLLSSNSRSLLT [TLE6]
protein stability index [1]: 2.06 ± 0.34
protein stability index [2]: 2.1 ± 0.19

LPPALVPAGGLAPGGGRGALLDQI [WAS]
protein stability index [1]: 3.69 ± 0.12
protein stability index [2]: 3.71 ± 0.25

LPPIPHVFSAGTGSAILPHFHHAF [PLAGL1]
protein stability index [1]: 2.15 ± 0.28
protein stability index [2]: 2.11 ± 0.1

LPSLVLARLVFVPLLLLCNIKPRR [SLC29A1]
protein stability index [1]: 2.79 ± 0.57
protein stability index [2]: 2.73 ± 0.41

LPTLSHIQEAQSAWKDDFALNSML [YJU2B]
protein stability index [1]: 3.13 ± 0.3
protein stability index [2]: 3.04 ± 0.23

LQFTILLSLIGVRVDVDTYLTSQL [NFE2L1]
protein stability index [1]: 2.97 ± 0.47
protein stability index [2]: 3.13 ± 0.27

LQGTESLNRATQSIERSHRIATET [VTI1B]
protein stability index [1]: 4.65 ± 0.18
protein stability index [2]: 4.76 ± 0.14

LQLFSSTLVGCWSDVVGRRSSLLA [MFSD9]
protein stability index [1]: 2.59 ± 0.65
protein stability index [2]: 2.38 ± 0.47

LQLLQSRTSRKFLACRLTPDMETK [INTS3]
protein stability index [1]: 2.69 ± 0.18
protein stability index [2]: 2.68 ± 0.2

LRALGELLRRDLGVGTSMEGASPL [FANCE]
protein stability index [1]: 2.92 ± 0.32
protein stability index [2]: 2.91 ± 0.43

LRAVRQRSEFTLMAKRIGKDLSNT [STX5]
protein stability index [1]: 2.64 ± 0.23
protein stability index [2]: 2.78 ± 0.37

LRCGNQGKGWKATRLFHDSAVTSV [DCAF4]
protein stability index [1]: 2.19 ± 0.21
protein stability index [2]: 2.27 ± 0.22

LRDGAVPLPESRREIEELLAEAKY [KCTD10]
protein stability index [1]: 4.5 ± 0.25
protein stability index [2]: 4.66 ± 0.28

LRDWEDLQQDFQNIQETHRLYRLK [TMEM120A]
protein stability index [1]: 3.38 ± 0.28
protein stability index [2]: 3.49 ± 0.4

LRGPSPWGFRLVGGRDFSAPLTIS [PDLIM4]
protein stability index [1]: 2.79 ± 0.2
protein stability index [2]: 2.44 ± 0.22

LRHDEVRTYFHEFGHVMHQICAQV [NLN]
protein stability index [1]: 2.31 ± 0.12
protein stability index [2]: 2.22 ± 0.26

LRLEREEYVLLKALALANSDSVHI [ESRRA]
protein stability index [1]: 2.51 ± 0.15
protein stability index [2]: 2.27 ± 0.2

LRSSDLYRHQRLHTGERPYECTVC [ZNF449]
protein stability index [1]: 3.05 ± 0.17
protein stability index [2]: 3.17 ± 0.29

LRTLDKKTFYKTADISQMLVCTAD [TAF7L]
protein stability index [1]: 2.61 ± 0.32
protein stability index [2]: 2.65 ± 0.41

LRTLSRAKFWPRRRFNFFVLENNL [DNAAF3]
protein stability index [1]: 2.33 ± 0.99
protein stability index [2]: 2.15 ± 0.087

LRYTLWIPLYPLGCLAEAVSVIQS [HACD3]
protein stability index [1]: 3.08 ± 0.49
protein stability index [2]: 3.11 ± 0.37

LSCLHSVCEQCLQILYESCPKYKF [RNF208]
protein stability index [1]: 2.2 ± 0.25
protein stability index [2]: 2.35 ± 0.51

LSDFEECEETGELFEEPAPQALAT [FCHSD1]
protein stability index [1]: 5.21 ± 0.22
protein stability index [2]: 5.2 ± 0.23

LSFYNARTKQVLHTFKTRFTQPLL [FSD1]
protein stability index [1]: 2.45 ± 0.6
protein stability index [2]: 2.43 ± 0.6

LSIQVEEERRAREWLLDAPELPEG [ZMAT5]
protein stability index [1]: 4.71 ± 0.34
protein stability index [2]: 5.06 ± 0.41

LSNLQKESRACLERIQELEDLLAK [LMNB1]
protein stability index [1]: 3.52 ± 0.15
protein stability index [2]: 3.67 ± 0.23

LSQLRVLCCEWLRPEKHTKEQILE [ZNF232]
protein stability index [1]: 2.37 ± 0.35
protein stability index [2]: 2.2 ± 0.22

LSRKKRLELDDNLDTERPVQKRAR [TRIB3]
protein stability index [1]: 4.79 ± 0.14
protein stability index [2]: 4.62 ± 0.37

LSTDMVHAASDPSSSSGRLSEPDP [SMOC2]
protein stability index [1]: 5.29 ± 0.24
protein stability index [2]: 5.38 ± 0.15

LSTNNNTLRDHFKGISSHSRSSLM [SLC2A12]
protein stability index [1]: 2.93 ± 0.3
protein stability index [2]: 3.3 ± 0.16

LSYVMSGYRCFVCPVEYNNDTNSF [CDS2]
protein stability index [1]: 2.78 ± 0.42
protein stability index [2]: 2.82 ± 0.45

LTDDDVVDWDEEYPPQMGEEYSQI [BTBD10]
protein stability index [1]: 5.15 ± 0.11
protein stability index [2]: 5.22 ± 0.19

LTINPAKRITAHEALKHPWVCQRS [CAMK2B]
protein stability index [1]: 2.55 ± 0.29
protein stability index [2]: 2.95 ± 0.16

LTNIWMARTCAKQNINAPAPATTS [C22orf31]
protein stability index [1]: 2.51 ± 0.27
protein stability index [2]: 2.59 ± 0.15

LTNSEYRSEQSVKLRRQVIQVVLN [ZER1]
protein stability index [1]: 2.51 ± 0.23
protein stability index [2]: 2.44 ± 0.48

LTVVCAAGAEPLPRNGDQWHEIRQ [WEE1]
protein stability index [1]: 2.55 ± 0.34
protein stability index [2]: 2.49 ± 0.4

LTYENVERWLKELRDHADSNIVIM [RAB11A]
protein stability index [1]: 2.21 ± 0.34
protein stability index [2]: 2.75 ± 0.3

LVEETSCQQNMIQELIETNQQLRN [CEP70]
protein stability index [1]: 4.3 ± 0.24
protein stability index [2]: 4.41 ± 0.3

LVGNKSDLRHLRAVPTDEARAFAE [RAB11A]
protein stability index [1]: 4.29 ± 0.34
protein stability index [2]: 4.39 ± 0.21

LVPETEDDRKLAALLKFHTLDSYE [YJU2B]
protein stability index [1]: 3.62 ± 0.34
protein stability index [2]: 3.58 ± 0.22

LVVLRFLTMNSEDERRDAEERASL [KCNK9]
protein stability index [1]: 2.68 ± 0.15
protein stability index [2]: 2.62 ± 0.28

LVYLGDLSRYQNELAGVDTELLAE [SMG5]
protein stability index [1]: 2.51 ± 0.2
protein stability index [2]: 2.74 ± 0.11

LWLTASQPCSIVDVEFLPVYHPSP [LPCAT4]
protein stability index [1]: 3.02 ± 0.74
protein stability index [2]: 2.53 ± 0.37

LYLLSGSIIAVAMQRGARLPAEVA [POMT2]
protein stability index [1]: 2.81 ± 0.38
protein stability index [2]: 3.21 ± 0.77

LYSQLLQAYKWSNKLQYHAGLASG [MED27]
protein stability index [1]: 3.28 ± 0.55
protein stability index [2]: 2.67 ± 0.71

MAAAEPSPRRVGFVGAGRMAGAIA [PYCR3]
protein stability index [1]: 2.97 ± 0.079
protein stability index [2]: 3.38 ± 0.073

MAALSRALGPLRTPAPPLWIGLFL
protein stability index [1]: 2.35 ± 0.26
protein stability index [2]: 2.28 ± 0.63

MAGNFWQSSHYLQWILDKQDLLKE [CCNC]
protein stability index [1]: 2.34 ± 0.32
protein stability index [2]: 2.57 ± 0.38

MALEPNTTFLRKSLKAALKHLGP [FANCE]
protein stability index (treatment: DMSO, c terminus: native): 2.48 ± 0.25
protein stability index (treatment: MLN4924 1 uM, 8 h, c terminus: native): 2.33 ± 0.17

MASSSTVPLGFHYETKYVVLSYLG [BCL2L13]
protein stability index [1]: 2.64 ± 0.48
protein stability index [2]: 2.33 ± 0.45

MATRSSDWLRRPLGEDNQPETQLF [TLE6]
protein stability index [1]: 3.91 ± 0.1
protein stability index [2]: 3.87 ± 0.1

MDVERQETPEWLDSDSCQKCDQPF [WDFY2]
protein stability index [1]: 5.11 ± 0.25
protein stability index [2]: 5.08 ± 0.15

MEAPGLAQAAAAESDSRKVAEETP [PRKX]
protein stability index [1]: 5.56 ± 0.38
protein stability index [2]: 5.54 ± 0.31

MEPAVSEPMRDQVARTHLTEDTPK [NSDHL]
protein stability index [1]: 5.57 ± 0.16
protein stability index [2]: 5.51 ± 0.22

MESKEKRAVNSLSMENANQENEEK [BEX1]
protein stability index [1]: 5.5 ± 0.25
protein stability index [2]: 5.52 ± 0.23

MFTSELSEKGKPYVDIQGLTASTM [KLHL12]
protein stability index [1]: 2.54 ± 0.31
protein stability index [2]: 2.88 ± 0.46

MGGAVSAGEDNDDLIDNLKEAQYI [PCMTD1]
protein stability index [1]: 4.82 ± 0.086
protein stability index [2]: 4.64 ± 0.17

MGSSQATMTSSQSMNFSMMSTNTV [CLINT1]
protein stability index [1]: 3.28 ± 0.27
protein stability index [2]: 3.64 ± 0.25

MGSTESSEGRRVSFGVDEEERVRV [CHCHD6]
protein stability index [1]: 5.15 ± 0.29
protein stability index [2]: 5.22 ± 0.13

MLIFWTITLFLLGAAKGKEVCYED [PNLIPRP1]
protein stability index [1]: 3.72 ± 0.18
protein stability index [2]: 3.3 ± 0.69

MLQIVVGVRDSGSPPLHANTSLHV [PCDHGC5]
protein stability index [1]: 2.6 ± 0.47
protein stability index [2]: 2.91 ± 0.72

MLSIFYFAIPVGSGLGYIAGSKVK [SPNS1]
protein stability index [1]: 2.83 ± 0.34
protein stability index [2]: 3.05 ± 0.4

MMKPQAETGEAARDPSLRPARTVL
protein stability index [1]: 4.18 ± 0.13
protein stability index [2]: 4.33 ± 0.13

MMSVNGQAKTHTDSSEKELEPEAA [ACBD3]
protein stability index [1]: 5.45 ± 0.21
protein stability index [2]: 5.38 ± 0.23

MNEVEKTMEYSMVGRTVLDMLIRE [RSPH3]
protein stability index [1]: 2.59 ± 0.56
protein stability index [2]: 2.16 ± 0.22

MQELTEMLGFRPYRFYFYMWKFVS [SLC6A17]
protein stability index [1]: 2.39 ± 0.21
protein stability index [2]: 2.35 ± 0.35

MQNLNDRLASYLDKVRALEEANAD [KRT15]
protein stability index [1]: 4.22 ± 0.32
protein stability index [2]: 4.37 ± 0.23

MQPPPPGPLGDCLRDWEDLQQDFQ [TMEM120A]
protein stability index [1]: 4.86 ± 0.2
protein stability index [2]: 4.66 ± 0.2

MRLSKTLVDMDMADYSAALDPAYT [HNF4A]
protein stability index [1]: 2.86 ± 0.28
protein stability index [2]: 3.08 ± 0.25

MRTGQNTWESKNILAVSFAPLVQP [PCMTD1]
protein stability index [1]: 2.84 ± 0.65
protein stability index [2]: 2.71 ± 0.46

MVHQRKLEAELLQIEERHQEKKRK [SMARCE1]
protein stability index [1]: 4.58 ± 0.34
protein stability index [2]: 4.36 ± 0.32

MVPHNLETTERMKCLYYLYATLDL [PDS5B]
protein stability index [1]: 2.14 ± 0.29
protein stability index [2]: 2.16 ± 0.38

MWGQSLLPPVSTSFTTGGLRIPFP [TNXB]
protein stability index [1]: 2.3 ± 0.41
protein stability index [2]: 2.42 ± 0.16

MYHYLQFAYYKLNDVRQAARSAAS [P3H4]
protein stability index [1]: 2.05 ± 0.42
protein stability index [2]: 2.33 ± 0.37

MYSVEITVEKDKVTGETRVLSSTT [PALM]
protein stability index [1]: 2.93 ± 0.21
protein stability index [2]: 3.19 ± 0.16

NATDPDEGTNGQLDYSFGDHTSEA [PCDHGC5]
protein stability index [1]: 5.45 ± 0.32
protein stability index [2]: 5.24 ± 0.12

NCKPLKSYMLQDSLEHVQLFDLMR [CLK3]
protein stability index [1]: 2.11 ± 0.31
protein stability index [2]: 2.25 ± 0.35

NDRLYAIGGNHLKGFSHLDVMLVE [KLHL14]
protein stability index [1]: 2.35 ± 0.33
protein stability index [2]: 2.58 ± 0.17

NELVKCIEELCQKREELCRQIQEE [SSNA1]
protein stability index [1]: 3.62 ± 0.33
protein stability index [2]: 3.76 ± 0.26

NERDSSEPGNFIPLFTPQSPVTAT [CDC25A]
protein stability index [1]: 4.65 ± 0.48
protein stability index [2]: 4.65 ± 0.33

NFCHIHNCIHRDIKPENILITKQG [CDKL4]
protein stability index [1]: 2.53 ± 0.067
protein stability index [2]: 2.74 ± 0.43

NGCRSGEIFAIDLRCGNQGKGWKA [DCAF4]
protein stability index [1]: 2.31 ± 0.35
protein stability index [2]: 2.2 ± 0.29

NGTKADGKDAKTTNGHGGEAAEGK [TRIM29]
protein stability index [1]: 5.48 ± 0.2
protein stability index [2]: 5.55 ± 0.12

NIMGIENICELAARMLFSAVEWAR [NR2F2]
protein stability index [1]: 3.04 ± 0.18
protein stability index [2]: 2.79 ± 0.25

NKKRGWRRLAQEPLGLEVDQFLED [NOP53]
protein stability index [1]: 4.45 ± 0.35
protein stability index [2]: 4.34 ± 0.18

NLDTEELCEYFSQHLGEYENVLAA [NECAB1]
protein stability index [1]: 2.83 ± 0.32
protein stability index [2]: 3.3 ± 0.66

NLKNDGRQVEKRRNSGPVVEKLKQ [MMP1]
protein stability index [1]: 4.58 ± 0.24
protein stability index [2]: 4.41 ± 0.49
